“And” between values parts separate entries of the source, which are not always exact repeats. Equal entries are not always repeated.

The target of the assay is trypsin. In words: cell-based or functional assay.

As to “inter-alpha trypsin inhibitor (ITI), native complex of light chain and heavy chain, affinity purified from human serum (from UniProt P19823 55-702)”, the inhibition of trypsin hydrolysis of P-toluenesulphonyl-L-arginine methyl ester (TAME) was 5 µg and 10 µg.

Source of the values: US6489128.
